Measured values from US20260200999A1, “SYNTHETIC TRANSCRIPTION FACTORS” (ETH ZURICH, priority 2022, published 2026).

B1: SEQ ID NO: 194: MTERF158-399 fused to three TA1 domains (protein)
chain: PGLPNGLLSGDEDFSSIADMDFSALLSQISSPGLPNGLLSGDEDFSSIADMDFSALLSQISSPGLPNGLLSGDEDFSSIADMDFSALLSQISS
B2: MTERF1104-399 with FoxoTAD: FoxoTAD: MTERF1104-399 (SEQ ID NO: 9) fused to FoxoTAD: FoxoTAD (SEQ ID NO: 33) (protein, listed as Homo sapiens)
chain: EQDLKMFLLSKGASKEVIASIISRYPRAITRTPENLSKRWDLWRKIVTSDLEIVNILERSPESFFRSNNNLNLENNIKFLYSVGLTRKCLCRLLTNAPRTFSNSLDLNKQMVEFLQAAGLSLGHNDPADFVRKIIFKNPFILIQSTKRVKANIEFLRSTFNLNSEELLVLICGPGAEILDLSNDYARRSYANIKEKLFSLGCTEEEVQKFVLSYPDVIFLAEKKFNDKIDCLMEENISISQIIENPRVLDSSISTLKSRIKELVNAGCNLSTLNITLLSWSKKRYEAKLKKLSRFAHEKFPSDLDLDMFNGSLECDMESIIRSELMDADGLDFNFDSHEKFPSDLDLDMFNGSLECDMESIIRSELMDADGLDFNFDS
B3: SEQ ID NO: 52: MTERF158-399 fused to chimeric TAD consisting of FoxoTAD, LMSTEN, and TA1 (protein)
chain: HEKFPSDLDLDMFNGSLECDMESIIRSELMDADGLDFNFDSEAQNVSSHVPYPVALHVNIVNVPQPAAAAIQRHYNDEDPEKEKRIKELELLLMSTENELKGQQVLPTQNHTCSYPGWHSTPGLPNGLLSGDEDFSSIADMDFSALLSQISS
B4: SEQ ID NO: 196: MTERF158-399 fused to two copies of the LMSTEN domain (protein)
chain: EAQNVSSHVPYPVALHVNIVNVPQPAAAAIQRHYNDEDPEKEKRIKELELLLMSTENELKGQQVLPTQNHTCSYPGWHSTEAQNVSSHVPYPVALHVNIVNVPQPAAAAIQRHYNDEDPEKEKRIKELELLLMSTENELKGQQVLPTQNHTCSYPGWHST
B5: SEQ ID NO: 58: MTERF158-399 fused to FoxoTAD with TA1 (protein)
chain: HEKFPSDLDLDMFNGSLECDMESIIRSELMDADGLDFNFDSPGLPNGLLSGDEDFSSIADMDFSALLSQISS
B6: FRB::RelA430-551: FRBT2098L fused to RelA430-551 (protein)
chain: MVAILWHEMWHEGLEEASRLYFGERNVKGMFEVLEPLHAMMERGPQTLKETSFNQAYGRDLMEAQEWCRKYMKSGNVKDLLQAWDLYYHVFRRISQAGEGTLSEALLQLQFDDEDLGALLGNSTDPAVFTDLASVDNSEFQQLLNQGIPVAPHTTEPMLMEYPEAITRLVTGAQRPPDPAPAPLGAPGLPNGLLSGDEDFSSIADMDFSALLSQISS
B7: SEQ ID NO: 56: MTERF158-399 fused to LMSTEN with TA1 (protein)
chain: EAQNVSSHVPYPVALHVNIVNVPQPAAAAIQRHYNDEDPEKEKRIKELELLLMSTENELKGQQVLPTQNHTCSYPGWHSTPGLPNGLLSGDEDFSSIADMDFSALLSQISS
B8: SEQ ID NO: 54: MTERF158-399 fused to FoxoTAD with LMSTEN (protein)
chain: HEKFPSDLDLDMFNGSLECDMESIIRSELMDADGLDFNFDSEAQNVSSHVPYPVALHVNIVNVPQPAAAAIQRHYNDEDPEKEKRIKELELLLMSTENELKGQQVLPTQNHTCSYPGWHST

What was measured:
[1] = tested on: Response Element-driven mCerulean reporter (MTERF1 binding sites, SEQ ID NO: 42); assay: mCerulean reporter co-transfection with HumTAP constructs in HEK293 cells (flow cytometry); assay type: cell-based, human; conditions: HEK293; for reporter (mCerulean) expression: TAD fused to MTERF158-399, pEF1a-driven, Example 4, FIG. 9B, C
Excerpt: To construct a promoter with Response Elements/MTERF1 binding sites driving the gene of interest, the inventors placed MTERF1 binding sites (SEQ ID NO: 42) upstream a minimal TATA box (SEQ ID NO: 103). An mCerulean fluorescent reporter representing the gene of interest (Gol) was placed downstream of the TATA box. Each of these is referred to as a reporter construct. Five different reporter constructs were made comprising respectively 3, 5, 7, 9, and 11 MTERF1 binding sites 6 base pairs apart upstream of the TATA box (FIG. 1A; SEQ ID NO: 41, 44, 45, 46 and 47, respectively). They were co-transfected with the MTF construct into Hela cells. […] Using flow cytometry, relative mCerulean levels were measured and calculated by normalization to the transfection control in Hela cells (FIG. 1C). […] Next, reporter plasmids with varying spacer lengths (0, 6 bp and 10 bp; SEQ ID NO: 48, 44 and 49, respectively) (FIG. 1F) between a fixed number of REs (i.e. 5 REs/MTERF1 binding sites) were transfected with the MTF construct. […] This was confirmed using flow cytometry (FIG. 1H). […]
With the goal to engineer stronger and possibly shorter HumTAPs, the inventors fused the MTERF158-399 peptide (SEQ ID NO: 1) to a variety of transactivation domains and transfected HEK293 cells with those constructs and the reporter construct comprising 5×RE/MTERF1 binding sites without a spacer between them (SEQ ID NO: 48).
First, MTERF158-399 (SEQ ID NO: 1) was fused with different subsequences of RelA. RelA361-551 (SEQ ID NO: 27) corresponds to the sequence used in the construction of the bacterial-derived synthetic TF PIT2 [19], while RelA342-551 (SEQ ID NO: 29) contains all annotated transactivation domains according to domain annotation under Uniprot Q04206 (https://www.uniprot.org/uniprotkb/Q04206/entry). […] We also fused MTERF158-399 (SEQ ID NO: 1) to a set of transactivation domains previously found to be strong activators with a small genetic footprint (FIG. 4B).
To further decrease the DNA footprint of a HumTAP, the inventors investigated to what degree the DNA binding domain may be reduced. To this end, the inventors created 3 versions of MTERF1 subsequences fused to RelA430-551 (SEQ ID NO: 3). MTERF173-399 (SEQ ID NO: 7), MTERF1104-399 (SEQ ID NO: 9), and MTERF1135-399 (SEQ ID NO: 11) are subunits of MTERF1 without its mitochondrial transfer peptide (MTERF11-57; SEQ ID NO: 37) that either lack only the first […] N-terminal amino acids (MTERF58-72; SEQ ID NO: 39) or additionally, also lack the first (MTERF173-98; SEQ ID NO: 104) or both the first and second (MTERF1104-134; SEQ ID NO: 106) mterf motifs (FIG. 5A). The removal of N-terminal domains reduces the genetic footprint of a HumTAP (FIG. 5B). These constructs were co-transfected into HEK293 cells with the reporter construct containing 5×RE without a spacer in its promoter (SEQ ID NO: 48).
In addition to RelA430-551 (termed “v1”), the inventors tested three alternative subsequences: v2) RelA342-551 (SEQ ID NO: 29), which contains all transactivation domains as annotated on UniProt Q04206; v3) RelA361-551 (SEQ ID NO: 27), which is identical to the peptide used in the construction of PIT2 [2]; and v4) RelA521-551 (SEQ ID NO: 31), which constitutes only the transactivation domain 1 (TA1). The protein domains WW (SEQ ID NO: 21), KRAB of ZNF473 (SEQ ID NO: 23), Nuc-rec-co-Act (SEQ ID NO: 25), LMSTEN (SEQ ID NO: 19), and FoxoTAD (SEQ ID NO: 17) were recently identified as strong transactivators. To assess their functionality in the HumTAP context, the inventors created fusion proteins between each of them and MTERF158-399 (SEQ ID NO: 1) (FIG. 9A).
Upon co-transfection of HEK293 cells with plasmids encoding pEF1a-driven expression of the fusion HumTAPs, a Response Element-driven mCerulean reporter protein, and a mCherry transfection control, all peptides derived from RelA except TA1 mediated high levels of reporter gene expression. […]

[2] = target: T1, FKBP (SEQ ID NO: 142) and FRBT2098L (SEQ ID NO: 140) heterodimerization (Homo sapiens, UniProt P42345+P62942+Q04206, T2098L); assay: A/C heterodimerizer-inducible HumTAP gene expression system in HEK293 cells; assay type: cell-based; conditions: HEK293; constant A/C heterodimerizer concentration of 100 nM; FIG. 10B
T1 construct: expressed in transfected cells; host or cells: HEK293
T1 sequence (P62942 with tags, fused parts or gaps, stated change not applied, one chain of several): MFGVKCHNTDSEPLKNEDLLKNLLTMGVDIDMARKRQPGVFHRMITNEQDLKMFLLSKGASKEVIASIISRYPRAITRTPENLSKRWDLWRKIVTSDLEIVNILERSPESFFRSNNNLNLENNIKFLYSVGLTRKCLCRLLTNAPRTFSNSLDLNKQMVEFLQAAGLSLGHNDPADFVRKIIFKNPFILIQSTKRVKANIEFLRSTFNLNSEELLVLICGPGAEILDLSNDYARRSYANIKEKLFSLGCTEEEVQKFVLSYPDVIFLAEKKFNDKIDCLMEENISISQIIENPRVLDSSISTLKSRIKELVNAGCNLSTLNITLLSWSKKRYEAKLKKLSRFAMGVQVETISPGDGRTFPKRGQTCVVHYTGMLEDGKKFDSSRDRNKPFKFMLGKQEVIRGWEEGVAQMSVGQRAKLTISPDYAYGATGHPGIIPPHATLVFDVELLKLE
Excerpt: One well-characterized small-molecule based dimerization system is based on the rapamycin analog A/C (C16-(S)-7-methylindolerapamycin) that induces heterodimerization between the human proteins FK506-binding protein 12 (FKBP; SEQ ID NO: 142) and the FKBP12-rapamycin binding domain (FRB) mutant FRBT2098L (SEQ ID NO: 140), [31]. To achieve A/C heterodimerizer-inducible gene expression, the inventors fused FKBP (SEQ ID NO: 142) to the N-terminus of MTERF158-399 (SEQ ID NO: 1) and FRB (SEQ ID NO: 140) to the C-terminus of different transactivation domains (FIG. 10A). […] In accordance with the results described above, chimeric transactivation domains mediated higher maximal output expression levels than RelA430-551.
The inventors reasoned that in the present system, dimerization might be hindered by either FRB's or FKBP's fusion partner and investigated whether the addition of linkers between the protein domains might impact the EC50 value (FIG. 10 D). A combination of the cMyc nuclear localization signal (NLS) (SEQ ID NO: 122) linking MTERF158-399 and FKBP, and the rigid linker AP6 (SEQ ID NO: 120) linking FRB and RelA430-551 led to a reduction in EC50 to ~60 nM while also increasing maximal output ~3-fold over the variant without linkers and RelA430-551 as TAD (FIG. 10 D).

Row | Molecule | reporter (mCerulean) expression [1] | further results
1 | B1 | further increased output expression | 
2 | B2 |  | strength / reporter gene expression, fold over MTF ([1]; chimeric TAD fused to MTERF1104-399, FIG. 9F): ~ 1.5 fold
3 | B3 |  | reporter gene expression relative to RelA430-551 ([1]; fused to MTERF158-399, FIG. 9C): 3.7 times
4 | B4 |  | mCerulean/reporter expression, fold more than one copy of the TAD ([1]; two copies of TAD fused to MTERF158-399, Example 4, FIG. 9C): ~ 2.7 fold
5 | B5 | smaller and stronger than the benchmark | 
6 | B6 |  | molar excess over the MTERF158-399: FKBP plasmid giving the highest mCerulean levels [2]: 4 fold
7 | B7 | smaller and stronger than the benchmark | 
8 | B8 | smaller and stronger than the benchmark | 
